The results in this text go back to PMC6959147 (2019).

First the molecules themselves.
B1: mAb 10_3 (IgG4 converted from scFv 10_3) (antibody, V domains shown)
VH: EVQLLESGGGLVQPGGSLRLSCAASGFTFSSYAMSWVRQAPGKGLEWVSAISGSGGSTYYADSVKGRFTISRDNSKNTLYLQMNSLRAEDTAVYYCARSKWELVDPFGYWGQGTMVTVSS
VL: NFMLTQPHSVSESPGKTITISCTRSSGSIAGNYVQWYQQRPGSAPIIVIYEDNQRPSGVPDRFSGSIDSSSNSASLTISRLKTEDEADYYCQSYEASNVVFGGGTKLTVL
B2: scFv-yeast clone 3_3 (scFv, V domains shown)
VH: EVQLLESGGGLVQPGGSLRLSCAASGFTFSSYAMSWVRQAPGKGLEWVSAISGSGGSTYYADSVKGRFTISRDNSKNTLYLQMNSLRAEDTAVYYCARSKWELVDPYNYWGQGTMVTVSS
VL: NFMLTQPHSVSESPGKTITISCTRSSGSIAGNYVQWYQQRPGSAPIIVIYEDNQRPSGVPDRFSGSIDSSSNSASLTISRLKTEDEADYYCQSYEASNVVFGGGTKLTVL
B3: scFv-yeast clone 10_12 (scFv, V domains shown)
VH: not shown
VL: NFMLTQPHSVSESPGKTITISCTRSSGSIAGNYVQWYQQRPGSAPIIVIYEDNQRPSGVPDRFSGSIDSSSNSASLTISRLKTEDEADYYCQSYEASNVVFGGGTKLTVL
B4: scFv-yeast clone 3_17 (scFv, V domains shown)
VH: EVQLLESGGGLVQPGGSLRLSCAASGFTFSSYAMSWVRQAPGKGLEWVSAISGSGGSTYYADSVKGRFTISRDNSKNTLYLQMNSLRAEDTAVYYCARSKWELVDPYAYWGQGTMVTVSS
VL: NFMLTQPHSVSESPGKTITISCTRSSGSIAGNYVQWYQQRPGSAPIIVIYEDNQRPSGVPDRFSGSIDSSSNSASLTISRLKTEDEADYYCQSYEASNVVFGGGTKLTVL
B5: wild type anti-PD-L1 scFv PD-L1_1 displayed on yeast (scFv, V domains shown)
VH: not shown
VL: NFMLTQPHSVSESPGKTITISCTRSSGSIAGNYVQWYQQRPGSAPIIVIYEDNQRPSGVPDRFSGSIDSSSNSASLTISRLKTEDEADYYCQSYEASNVVFGGGTKLTVL
B6: scFv-yeast clone 3_7 (scFv, V domains shown)
VH: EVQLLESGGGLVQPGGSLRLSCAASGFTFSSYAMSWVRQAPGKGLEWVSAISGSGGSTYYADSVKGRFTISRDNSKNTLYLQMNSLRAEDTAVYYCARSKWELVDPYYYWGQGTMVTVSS
VL: NFMLTQPHSVSESPGKTITISCTRSSGSIAGNYVQWYQQRPGSAPIIVIYEDNQRPSGVPDRFSGSIDSSSNSASLTISRLKTEDEADYYCQSYEASNVVFGGGTKLTVL
B7: scFv-yeast clone 10_3 (scFv, V domains shown)
VH: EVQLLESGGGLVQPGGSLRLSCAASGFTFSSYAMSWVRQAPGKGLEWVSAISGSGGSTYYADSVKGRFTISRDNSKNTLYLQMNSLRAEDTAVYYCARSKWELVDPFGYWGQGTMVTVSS
VL: NFMLTQPHSVSESPGKTITISCTRSSGSIAGNYVQWYQQRPGSAPIIVIYEDNQRPSGVPDRFSGSIDSSSNSASLTISRLKTEDEADYYCQSYEASNVVFGGGTKLTVL
B8: scFv-yeast clone 3_14 (scFv, V domains shown)
VH: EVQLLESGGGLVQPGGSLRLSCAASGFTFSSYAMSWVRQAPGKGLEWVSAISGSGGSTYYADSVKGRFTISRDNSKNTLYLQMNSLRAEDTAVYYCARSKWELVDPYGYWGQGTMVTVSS
VL: NFMLTQPHSVSESPGKTITISCTRSSGSIAGNYVQWYQQRPGSAPIIVIYEDNQRPSGVPDRFSGSIDSSSNSASLTISRLKTEDEADYYCQSYEASNVVFGGGTKLTVL

In the first assay the target is PD-L1 expressed in its native conformation on activated human PBMCs (human (endogenous in hPBMCs), UniProt Q9NZQ7 19-290). As to the kind of experiment: FACS. On the technique in general: A flow cytometer gives signals particle by particle.
Chain of PD-L1 expressed in its native conformation on activated human PBMCs (Q9NZQ7 19-290): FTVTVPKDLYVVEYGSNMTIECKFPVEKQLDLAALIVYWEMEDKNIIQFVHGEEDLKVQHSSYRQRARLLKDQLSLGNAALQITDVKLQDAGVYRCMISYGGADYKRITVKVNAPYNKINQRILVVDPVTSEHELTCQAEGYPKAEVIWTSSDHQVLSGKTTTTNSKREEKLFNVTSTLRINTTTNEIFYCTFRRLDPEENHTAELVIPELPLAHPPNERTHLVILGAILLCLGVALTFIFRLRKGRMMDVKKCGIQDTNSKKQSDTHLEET
Molecule B1 returned a Kd of 2 nM.

For a further assay, the target named is recombinant human PD-L1, Fc-tagged (rhPD-L1-Fc) (human, UniProt Q9NZQ7 19-238). Kind of assay: FACS.
Chain of recombinant human PD-L1, Fc-tagged (rhPD-L1-Fc) (Q9NZQ7 19-238): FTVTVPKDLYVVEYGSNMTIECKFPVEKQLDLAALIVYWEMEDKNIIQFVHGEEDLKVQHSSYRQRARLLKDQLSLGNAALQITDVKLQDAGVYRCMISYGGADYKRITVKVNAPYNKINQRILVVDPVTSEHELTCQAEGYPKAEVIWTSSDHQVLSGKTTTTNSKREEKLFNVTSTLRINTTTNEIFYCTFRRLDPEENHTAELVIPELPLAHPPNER
In the case of B2, the Kd stood at 0.6 nM. On the same count and under the same terms, under B3 stands 0.73 nM; under B4, 0.46 nM. The same measure, in the same setting: for B5 the value was 4.55 nM; for B6, 0.68 nM.

In the case of B7, the Kd came to 0.5 nM. For the molecule B8, the equilibrium dissociation constant (Kd) came out at 0.58 nM.

What is called Kd is the concentration at which binding is half-saturated.
